Measured values taken from publication PMC3139607.

Experiments:
[1] = target: two-domain (2D) soluble CD4 (amino acids 1 to 183) (human); test: ELISA; hybridoma culture supernatants diluted 1:1 on solid-phase 2D-CD4, gp120 (Ba-L) or the 2D-CD4/gp120 (Ba-L) complex; values qualitative
[2] = target: 2D-CD4-gp120 (Ba-L) complex (human | HIV-1 isolate Ba-L); test: as above

B1: MAb DB81 (antibody, V domains shown)
VH: EVQLQQSGPELVKPGASVKISCKASGYSFTDYTMLWVKQSHGKSLEWIGNINPYYDTTTYNLNFKGKATMTVDKSSSTAYMQLNSLTSEDSAVYYCAREGDYGHPFAYWGQGTLVTVSS
VL: DIVMTQSHKFMSTSVGDRVSITCKASQDVSTTVAWYQQKPGQSPKLLIYSASYRYTGVPDRFTGSGSGTDFTFTISSVQAEDLAVYYCQQHYSTPPTFGGGTKLEIR
For B1, the Binding to CD4 (ELISA reading) [1] was 1.23 and the Binding to CD4-gp120 (ELISA reading) [2] was 2.
